For one data set, the system named is mouse L1210 leukemia. Description: antitumor activity against mouse L1210 leukemia, life prolongation rate. The settings on record: once a day for five days starting 24 hours after tumor cell injection, control survival day = 100%. It counts as in vivo. The protocol: These HB-6 substances were tested for their antitumor activity in terms of mouse L1210 leukemia. L1210 leukemia cells (1×10^5) were abdominally injected to each mouse, and the test sample was administered once a day for consecutive five days, with the first administration being started 24 hours after injection of the tumor cells. The result is summarized in Table 1, in which the antitumor activity of each drug is expressed as life prolongation rate, taking the survival day for the control group as 100%.
These HBW-6 substances were tested for their antitumor activity in terms of mouse L1210 leukemia. L1210 leukemia cells (1×10^5) were abdominally injected to each mouse, and the test sample was administered once a day for consecutive five days, with the first administration being started 24 hours after injection of the tumor cells. The result is summarized in Table 2, in which the antitumor activity of each drug is expressed as life prolongation rate, taking the survival day for the control group as 100%.

Data set [1] relates to Bacillus subtilis ATCC6633. Description: antibacterial activity, MIC, Bacillus subtilis ATCC6633. The data set is classed as cell-based.
Data set [2] has as its system Micrococcus luteus ATCC9341. Description: antibacterial activity, MIC, Micrococcus luteus ATCC9341. The data set is classed as cell-based.
For data set [3], the system named is Pseudomonas aeruginosa ATCC10145. Description: antibacterial activity, MIC, Pseudomonas aeruginosa ATCC10145. The data set is classed as cell-based.
The nature of another data set: Solubility. It counts as physicochemical. The settings on record: water and organic solvents.
Another data set can be described thus: Isoelectric point. It counts as physicochemical.

Converted amounts (≈) assume the structure as drawn. Like-named read-outs stand apart in the source and are kept apart here. Bounds are passed on as bounds.

The term MIC denotes the smallest concentration in the dilution series that meets the test's criterion for growth inhibition.

On to `COc1cccc2c1C(=O)c1c(O)c3c(c(O)c1C2=O)C[C@@](O)(C(C)=O)C[C@@H]3O[C@H]1C[C@H](N)[C@H](O)[C@H](C)O1` [Daunomycin, daunomycin, reference compound], for which the “Life Prolongation Rate” value in the data set with mouse L1210 leukemia (dose 2 mg/Kg) is 145%. In addition, the values for the minimum inhibitory concentration (MIC) in data set [1] (read-out: MIC), in data set [2] (read-out: MIC) and in data set [3] (read-out: MIC) were 5.8 µg/mL (≈ 11 µM), 1.2 µg/mL (≈ 2.27 µM) and over 10 µg/mL, respectively.

B1: NCS-apoprotein: methanol-insoluble fraction (protein moiety) of neocarzinostatin (protein, UniProt P0A3R9 35-147, looked up)
Neocarzinostatin: AAPTATVTPSSGLSDGTVVKVAGAGLQAGTAYDVGQCAWVDTGVLACNPADFSSVTADANGSASTSLTVRRSFEGFLFDGTRWGTVDCTTAACQVGLSDAAGNGPEGVAISFN
As to B1, in the data set “Solubility”, the Solubility result was “Soluble in water; insoluble in methanol, ethanol, acetone, butanol and propanol”. Also, the “Life Prolongation Rate” value in the data set with mouse L1210 leukemia (dose 2 mg/Kg) was 101%. The molecule further displayed an Isoelectric point in the data set “Isoelectric point” of 3.2 pH. The minimal inhibitory concentration (MIC) in data set [1], in data set [2] and in data set [3] was over 100 µg/mL each time.

B2: HBW-10(A): NCS-apoprotein and daunomycin bound through hydrogen bond and/or hydrophobic bond, molar ratio 1:1 (conjugate, UniProt P0A3R9 35-147, looked up)
Neocarzinostatin: AAPTATVTPSSGLSDGTVVKVAGAGLQAGTAYDVGQCAWVDTGVLACNPADFSSVTADANGSASTSLTVRRSFEGFLFDGTRWGTVDCTTAACQVGLSDAAGNGPEGVAISFN
modifications: noncovalent complex with daunomycin, 1:1
For B2, in the data set on mouse L1210 leukemia (dose 1 mg/Kg), the “Life Prolongation Rate” value was determined as 260%. Moreover, the MIC in data set [1] was 2.3 µg/mL; in data set [2], 0.30 µg/mL; in data set [3], over 10 µg/mL.

B3: HBW-21(A): NCS-apoprotein and aclacinomycin A bound together, molar ratio 1:1 (conjugate, UniProt P0A3R9 35-147, looked up)
Neocarzinostatin: AAPTATVTPSSGLSDGTVVKVAGAGLQAGTAYDVGQCAWVDTGVLACNPADFSSVTADANGSASTSLTVRRSFEGFLFDGTRWGTVDCTTAACQVGLSDAAGNGPEGVAISFN
modifications: aclacinomycin A conjugate, 1:1
For the molecule B3, the “Life Prolongation Rate” value with mouse L1210 leukemia (dose 1 mg/Kg) is 135%.

B4: HBW-21(B): NCS-apoprotein and aclacinomycin A bound together, molar ratio 1:5 (conjugate, UniProt P0A3R9 35-147, looked up)
Neocarzinostatin: AAPTATVTPSSGLSDGTVVKVAGAGLQAGTAYDVGQCAWVDTGVLACNPADFSSVTADANGSASTSLTVRRSFEGFLFDGTRWGTVDCTTAACQVGLSDAAGNGPEGVAISFN
modifications: complex with aclacinomycin A, 1:5
On to B4, for which, in the data set with mouse L1210 leukemia (dose 1 mg/Kg), the “Life Prolongation Rate” value was determined as 162%.

These data come from patent US4642335A, “Anthracycline compounds bound to hydrophilic polypeptides” (Ajinomoto Co., Inc., priority 1984, dated 1987).
